T1: human Claudin 18.2 (human, UniProt P56856-2 1-261)
T1 sequence (looked up): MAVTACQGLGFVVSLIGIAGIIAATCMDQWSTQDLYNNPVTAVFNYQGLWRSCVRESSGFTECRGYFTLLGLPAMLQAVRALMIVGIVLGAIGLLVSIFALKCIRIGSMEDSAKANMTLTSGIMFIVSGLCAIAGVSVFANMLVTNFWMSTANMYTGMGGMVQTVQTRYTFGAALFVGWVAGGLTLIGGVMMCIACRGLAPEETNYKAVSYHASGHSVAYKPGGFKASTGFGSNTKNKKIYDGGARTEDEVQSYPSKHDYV

T2: human Claudin 18.1 (human, UniProt P56856 1-261)
T2 construct: whole, on cells; Splice variant used as specificity control
T2 sequence (looked up): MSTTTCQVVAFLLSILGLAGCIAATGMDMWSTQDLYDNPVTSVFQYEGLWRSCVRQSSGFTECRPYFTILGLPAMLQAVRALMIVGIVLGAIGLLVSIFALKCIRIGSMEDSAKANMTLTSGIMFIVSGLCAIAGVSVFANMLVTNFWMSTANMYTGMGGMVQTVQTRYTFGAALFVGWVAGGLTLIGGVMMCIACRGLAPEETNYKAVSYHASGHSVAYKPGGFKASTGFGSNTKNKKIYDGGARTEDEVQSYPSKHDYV


Tests used:
human Claudin 18.2 = target: T1, human Claudin 18.2; assay: cell-based or functional assay
human Claudin 18.1 = target: T2, human Claudin 18.1; assay: flow cytometry (iQue) on HEK293 cells stably expressing human Claudin 18.1
Description: The cells were gently tapped, and 50 μL of serially diluted antibodies were added to each well (antibody concentration starting from 100 nM, 5-fold dilution for 8 gradients), and incubated at 4° C. for 1 hour. After the incubation, 140μL of 0.5% BSA was added to each well to wash 3 times, and 30 μL/well of secondary antibody AlexaFluro647 anti-human IgG (Jackson ImmunoResearch, Cat: 109-606-170) was added, and incubated at 4° C. for 40 minutes. After the incubation, 140 μL of 0.5% BSA was added to each well to wash 3 times, and finally each well was resuspended in 50 μL of PBS for detection by flow cytometry (iQue Screener).

Row | Binder | Mean IC50 of cell killing, LT-1C8 cells (KATO stable cell line, medium Claudin 18.2 expression), 96 h, CCK-8 or Presto-Blue (human Claudin 18.2) [µg/mL] | Mean IC50 of cell killing, LT-M11 cells (KATO stable cell line, high Claudin 18.2 expression), 96 h, CCK-8 or Presto-Blue (human Claudin 18.2) [µg/mL] | Mean IC50 of cell killing, row without a cell line label printed under LT-M11 (taken as a second LT-M11 series) (human Claudin 18.2) [µg/mL] | binding result (human Claudin 18.1)
1 | CM311-18D10-VH3/VL2-ADC (other, MC-vc-PAB-MMAE coupled to free cysteine thiols of the DTT-reduced antibody; average DAR 3.5 per antibody; sites not stated) VH: QVQLQESGPGLVKPSETLSLTCTVSGGSISSNYAWNWIRQPPGKGLEWIGYINYSGNTNYNPSLKSRVTISRDTSKNQFSLKLSSVTAADTAVYYCATSYYGNSFIYWGQGTLVTVSS VL: not shown | 0.52 | 0.2 | 0.132 | 
2 | CM311-18D10-VH6/VL2-ADC (other, MC-vc-PAB-MMAE coupled to free cysteine thiols of the DTT-reduced antibody; average DAR 3.4 per antibody; sites not stated) VH: QVQLQESGPGLVKPSETLSLTCTVSGGSISSNYAWNWIRQPPGKGLEWIGYIYYSGNTNYNPSLKSRVTISRDTSKNQFSLKLSSVTAADTAVYYCATSYYGNSFIYWGQGTLVTVSS VL: not shown | 0.615 | 0.35 | 0.147 | 
3 | 18D10 chimera (antibody, V domains shown, also called Clone 18D10; 18D10 mVH / 18D10 mVL) VH: DVQLQESGPGLVKPSQSLSLTCTVTGYSITSNYAWNWIRQFPGNKLEWMGYINYSGNTNYNPSLKSRISITRDTSKNQFFLQLNSVTAEDTATYYCATSYYGNSFIYWGQGTLVTVSA VL: DIVMTQSPSSLTVTAGEKVTMSCKSSQSLLNSGNQKNYLTWYQQKPGQPPKLLIYWASTRESGVPDRFTGSGSGTDFTLTISSVQAEDLAVYYCQNAYSFPWTFGGGTKLEIK |  |  |  | no binding
4 | 18A9 chimera (antibody, V domains shown, also called Clone 18A9; 18A9 mVH / 18A9 mVL) VH: QVQLQQSGREVVRPGTSVKVSCKPSGYAFTNYLIDWVKQRPGQGLEWIGGINPGSGDTVYNEKFKAKATLTADKSSMTANMQLSSLTSDDSAVYFCARRVRGNSFDSWGQGTLVTVSA VL: DIVMSQSPSSLTVTAGEKVTMSCKSSQSLLNSGNQKNYLTWYQQKPGQPPKLLIYWASTRESGVPDRFTGSGSGKDFTLTISSVQAEDLALYYCQNNYFYPLTFGAGTKLELK |  |  |  | no binding
5 | CM311-18A9-VH7/VL2-ADC (other, MC-vc-PAB-MMAE coupled to free cysteine thiols of the DTT-reduced antibody; average DAR 3.0 per antibody; sites not stated) VH: QVQLVQSGAEVKKPGASVKVSCKPSGYTFTNYLIDWVRQAPGQGLEWMGGINPGSGDTVYNEKFQGRVTLTADTSTSTVYMELSSLRSEDTAVYFCARRVRGNSFDSWGQGTLVTVSS VL: not shown | 0.111 | 0.155 | 0.0512 | 

Source: patent US20230381336A1 (SHANGHAI MIRACOGEN, published 2023)
